{"source": "patent US20260184814A1", "about": "“BROADLY NE[…] INFLUENZA NEURAMINIDASE” (priority 2022, published 2026)", "key": {"[1]": {"biological_target": "N2 A/HongKong/2671/2019 (Influenza A virus (H3N2))"}, "[2]": {"biological_target": "N2 A/Switzerland/8060/2017 (Influenza A virus (H3N2))"}}, "data": [{"substance": "1G01 Fab", "values": [{"measurement": "Kd", "setting": "[1]", "value": "< 0.02", "unit": "nM"}, {"measurement": "Kd", "setting": "[2]", "value": "< 0.02", "unit": "nM"}]}]}
